{"source": "paper PMC4105751", "about": "(RNA, 2014)", "proteins": {"B1": {"name": "N-terminal SPOUT domain of TrmJ of Escherichia coli (EcTrmJ1-164) (domain or fragment, E. coli, UniProt P0AE01 1-164, looked up)", "chain": "MLQNIRIVLVETSHTGNMGSVARAMKTMGLTNLWLVNPLVKPDSQAIALAAGASDVIGNAHIVDTLDEALAGCSLVVGTSARSRTLPWPMLDPRECGLKSVAEAANTPVALVFGRERVGLTNEELQKCHYHVAIAANPEYSSLNLAMAVQVIAYEVRMAWLATQ"}, "B2": {"name": "C-terminal domain of TrmJ of Escherichia coli (EcTrmJ167-246) (domain or fragment, E. coli, UniProt P0AE01 167-246, looked up)", "chain": "GEQVEHEETPYPLVDDLERFYGHLEQTLLATGFIRENHPGQVMNKLRRLFTRARPESQELNILRGILASIEQQNKGNKAE"}, "B3": {"name": "N-terminal SPOUT domain of TrmJ of Sulfolobus acidocaldarius (SaTrmJ1-157) (domain or fragment, UniProt Q4JB16 1-157, looked up)", "chain": "MTIRLVIVEPEGAYNLGFIARLVKNFLIDEFYVVNPKADINEAIKFSAKGSEVIEKMMKITNNFDDAIRDVDLKIATSSIADIKGDLLRKSIRPIDLERLIKDKKVAFIFGRESVGLTREEIAKSDFLLFIPANPEYPVLNLSHAVGIVLYELWRNR"}}, "key": {"[1]": {"molecular_target": "the molecule itself", "test": "crystal structure"}, "[2]": {"molecular_target": "the molecule itself", "test": "SAXS with inline size-exclusion chromatography"}, "[3]": {"molecular_target": "the molecule itself", "test": "crystal structure", "remark": "listed apart in the source"}}}
{"protein": "B1", "values": [{"measurement": "stoichiometry N", "setting": "[1]", "result": 2}]}
{"protein": "B2", "values": [{"measurement": "stoichiometry N", "setting": "[2]", "result": 2}]}
{"protein": "B3", "values": [{"measurement": "stoichiometry N", "setting": "[3]", "result": 2}]}
